Laboratory results from US20240175869A1.
pEC50: −log10 of the molar value.

Legend:
ALK6 [1] = assay: solid-phase binding assay, MuSK construct immobilized, ALK6 titrated, pH 6.0; given as Half Max
ALK6 [2] = assay: solid-phase binding assay, MuSK construct immobilized, ALK6 titrated, pH 7.4; given as Half Max
ALK6 [3] = assay: solid-phase binding assay, saturation measured at 100 nM ALK6, pH 6.0
ALK6 [4] = assay: solid-phase binding assay, MuSK construct immobilized, ALK6 at 100 nM (FIG. 8)
ALK6 [5] = assay: solid-phase binding assay, half max read from the curve (FIG. 8)
ALK6 [6] = assay: solid-phase binding assay, pH 6.0 (FIG. 12)
ALK6 [7] = assay: solid-phase binding assay, pH 7.4 (FIG. 12)
ALK6 [8] = assay: solid-phase binding assay, saturation measured at 100 nM ALK6, pH 7.4
ALK6 [9] = assay: solid-phase binding assay, MuSK immobilized, ALK6 at 100 nM (FIG. 7)
ALK6 [10] = assay: solid-phase binding assay, pH 6.0 (FIG. 13)
ALK6 [11] = assay: solid-phase binding assay, several assays, ALK6 at 100 nM
ALK6 [12] = assay: solid-phase binding assay, pH 7.4 (FIG. 13)
ALK6 [13] = assay: solid-phase binding assay, half max read from the curve (FIG. 10)
ALK6 [14] = assay: solid-phase binding assay, half max read from the curve (FIG. 9)
ALK6 [15] = assay: solid-phase binding assay, isolated domain immobilized, ALK6 titrated (FIG. 9)

ALK6, sequence (O00238 14-126): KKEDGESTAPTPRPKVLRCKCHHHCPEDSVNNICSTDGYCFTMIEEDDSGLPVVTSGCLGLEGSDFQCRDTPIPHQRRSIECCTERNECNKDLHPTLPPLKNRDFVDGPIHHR
isolated MuSK Ig2 domain, His-tagged (receptor), sequence (Q62838 121-205): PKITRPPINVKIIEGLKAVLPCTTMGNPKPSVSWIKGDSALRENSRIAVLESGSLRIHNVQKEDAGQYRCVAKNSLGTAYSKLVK
MuSK Ig1-Ig2 only construct, His-tagged (receptor), sequence (Q62838 22-205): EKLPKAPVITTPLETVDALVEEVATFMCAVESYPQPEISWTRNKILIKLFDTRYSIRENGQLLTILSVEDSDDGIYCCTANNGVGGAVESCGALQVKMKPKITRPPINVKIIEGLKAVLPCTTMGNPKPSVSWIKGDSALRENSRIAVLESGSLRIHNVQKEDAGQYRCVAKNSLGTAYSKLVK

MuSK Ig1-Ig2 only construct, His-tagged (receptor)
pEC50 (ALK6 [1]): 7.80 | pEC50 (ALK6 [2]): 7.74 | Saturation (%) (ALK6 [3]): 99% | absorbance at 100 nM ALK6 (absorbance (450 nm)) (ALK6 [4]): 3 | pEC50 (ALK6 [5]): 8.20 | pEC50 (ALK6 [6]): 8.20 | absorbance (absorbance (450 nm)) (ALK6 [6]): 3 | pEC50 (ALK6 [7]): 7.60 | absorbance (absorbance (450 nm)) (ALK6 [7]): 0.75 | Saturation (%) (ALK6 [8]): 21%

MuSK ectodomain with Ig2 deletion (ΔIg2), His-tagged (receptor)
absorbance at 100 nM ALK6 (absorbance (450 nm)) (ALK6 [9]): 0.15

MuSK ectodomain with an Ig1 deletion (ΔIg1), His-tagged (receptor)
pEC50 (ALK6 [10]): 8.19 | maximum absorbance (absorbance (450 nm)) (ALK6 [10]): 4 | pEC50 (ALK6 [1]): 7.86 | absorbance at 100 nM ALK6 (absorbance (450 nm)) (ALK6 [11]): > 3 | pEC50 (ALK6 [2]): 8.04 | Saturation (%) (ALK6 [3]): 100% | pEC50 (ALK6 [12]): 8.19 | maximum absorbance (absorbance (450 nm)) (ALK6 [12]): 4 | pEC50 (ALK6 [13]): 7.90 | Saturation (%) (ALK6 [8]): 99%

isolated MuSK Ig2 domain, His-tagged (receptor)
pEC50 (ALK6 [14]): 8.20 | pEC50 (ALK6 [1]): 7.63 | absorbance (absorbance (450 nm)) (ALK6 [15]): 1.8 | Saturation (%) (ALK6 [3]): 83%
